{"source": "the DeepSol protein solubility set", "experiment": "soluble on expression in E. coli; label from the status in PepcDB or PDB records"}
{"sequence": "MSRVPEPSVFLVVDEAKRKARERGVGLIDLSIGSTDLPPPEAPLKALAEALNDPTTYGYCLKSCTLPFLEEAARWYEGRYGVGLDPRREALALIGSQEGLAHLLLALTEPEDLLLLPEVAYPSYFGAARVASLRTFLIPLREDGLADLKAVPEGVWREAKVLLLNYPNNPTGAVADWGYFEEALGLARKHGLWLIHDNPYVDQVYEGEAPSPLALPGAKERVVELFSLSKSYNLAGFRLGFALGSEEALARLERVKGVIDFNQYAGVLRMGVEALKTPKEVVRGYARVYRERALGMAEALKGVLSLLPPRATMYLWGRLPEGVDDLEFGLRLVERGVALAPGRGFGPGGKGFVRIALVRPLEELLEAAKRIREALD", "values": [{"measurement": "soluble on expression in E. coli", "value": "soluble"}]}
{"sequence": "MAHHHHHHMLSIGMTAMDTEGDVTQMELSALLVHIERCERLLRHPTLLSRLPDEGETIRSRHALYVAERSRREVGGDASSSRKENDAVEGSVRQVERQISQMTLSTEEKSEKTATMPMECHASLNTDGWTVGAGGKAVESYEDVARAVGEKHRHSRIPVEMIVRQTFGGSLCEAEIQRMLCDVPPNFFLTHDETISMQRKLLSEERLEALTRLRNQRHAEL", "values": [{"measurement": "soluble on expression in E. coli", "value": "not soluble"}]}
{"sequence": "MKVNIDPTAPTFATYRRDMRAEQMAEDYPVVSIDSDALDAARMLAEHRLPGLLVTAGAGKQYAVLPASQVVRFIVPRYVQDDPLLAGVLNESTADRCAERLSGKKVRDVLPDHLVEVPPANADDTIIEVAAVMARLRSPLLAVVKDGSLLGVVTASRLLAAALKT", "values": [{"measurement": "soluble on expression in E. coli", "value": "soluble"}]}
{"sequence": "RMSEQSICQARAAVMVYDDANKKWVPAGGSTGFSRVHIYHHTGNNTFRVVGRKIQDHQVVINCAIPKGLKYNQATQTFHQWRDARQVYGLNFGSKEDANVFASAMMHALEVLNS", "values": [{"measurement": "soluble on expression in E. coli", "value": "soluble"}]}
{"sequence": "MALKNNTLWTGPKPEANCIIEYGKQNPDSKLTLILVKNGGIVNGYVTLMGASDYVNTLFKNKNVSINVELYFDATGHILPDSSSLKTDLELKYKQTADFSARGFMPSTTAYPFVLPNAGTHNENYIFGQCYYKASDGALFPLEVTVMLNKRLPDSRTSYVMTFLWSLNAGLAPETTQATLITSPFTFSYIREDD", "values": [{"measurement": "soluble on expression in E. coli", "value": "soluble"}]}
{"sequence": "MAHHHHHHMTSGYSSYAGASGSGHERFTRILVVGEASVGKTLLIRRLCDHIFGDTSITSTDEGSAPESPYQSQSAVADDDLGPEWGPTVGIAVDALKRSTTVLEDTVTMPNLAMSTPYDTAAVARYTAPSCSLHSGENGNYPHCSVYDTPCSTSGYGRSNSVLQYRGQGFVGSNTSFALLHQLTSASPPRRQTVLQTVEFHELGGTHGYRDVARLLLRNIHYDGVMFVYHRRSLTSTLYLKEWYRWIRSVFSASPDVGSHYGAEAKKPVKCSKKMPRFMLVGTQLPGDELPAAAAGLTKAAAETLHMASGAISDETLLDGNLEVKLRALQSPQTLTQRRGVRHALSKVFRRLAWPYHMWWCVSHPFFLLSKQYQEELGPRSRLGACGSRVVERFVWLFYQAEQALLYVMAVILFGPYQEAVVLGHSRPKQTLEEMLKDELCVSQAHVCRLESNISLQSSLDDMVAFFDILLRQDAPDEGR", "values": [{"measurement": "soluble on expression in E. coli", "value": "not soluble"}]}
{"sequence": "MKRAPFLCKQSPDRTLEVVILAGSLAWETSRVWRKDPDREDDVPPMVLGPNELADLSNLTIIRPDTLYVRVLRTGDISEEDLLKIAVKLAHAGVQMARLMSPDGELLENWTGQLERLRQERPSDILPDHFRLDEEALWFDKLTERRDGESDVQPQRICSPLRVTAITCDSHDGSYGRLLEWHTTTGQLRRWAMPMAMLSGNGEELRRILLENGLTNISTRPALRSLLCEYISRSLPGRRVTCVEKTGWHNGVYVLPDEVIGPDGDNVILQGSHYLTGGFAQAGTLAEWQEQVAALCAGNSRLVFAVCCALAAPLLRLTGTGGGGFHLRGESTDGKTTVMKVAASVCGGTDYWHSWRATGNALEGIASRHNDALLPLDELREVDPREAGMIAYMLANGQGKGRARTDGEVRNRRHWTLLLFSTGELSLAEHTERAGERIYAGMDVRMVQIPSDTGQHGAFEQLHGFASGQQFADTLCDRVARFHGTAFRAWLAFLTHDQDASTTLARELLRRYQNALMPDNAGNQVQRIVARFALLAAAGEIATLHGITGWQKGTAYEAVQICLHAWLNERGHIANQEDEGVLAQIKRFITAHQYSRFASWDGPDRPLNMAGFRRVEKDPLTGEEHTLFFILPEGWREICRGFSPARAARLCQEAECLQPGSDGKYQSQVRLPEIGKTRVYRLTSRILSILEHHHHHH", "values": [{"measurement": "soluble on expression in E. coli", "value": "soluble"}]}
{"sequence": "MGHHHHHHSHEPRVNTSALQKIAADMSNIIENLDTRELHFEGEEVDYDVSPSDPKIQEVYIPFSAIYNTQGFKEPNIQTYLSGCPIKAQVLEVERFTSTTRVPSINLYTIELTHGEFKWQVKRKFKHFQEFHRELLKYKAFIRIPIPTRRHTFRRQN", "values": [{"measurement": "soluble on expression in E. coli", "value": "not soluble"}]}
{"sequence": "IGKEKAEVELLQVDPELQAEIIATHNIALQAAVQVEEKKAREAATEAVKEVVIGEYEARYAEHEEYDRIMRDVAEILEQMEHAEVRRLITEDKIRPDGRRVDEIRP", "values": [{"measurement": "soluble on expression in E. coli", "value": "not soluble"}]}
{"sequence": "YLGEVYTAKTDDGVKIKLLRYHPPGEGVNDGVQPVVLFSGLLCNMNEYLTHTPPELKDLYKTQLPSELADWAVGDERIQQDPMLYYSLAYYLWKQGYDVWLVNYRGTGVGELKSGVGSARTSLDTWAIYDTKAAITKVYEVTGKHPVIGGHSTGGLVSYVYLQGAKFKWTFACLFKKPWCKKVVSDDDLVRERNGLTEGEETVVGVIALDPAMIPPLPKLTDLKLMWLLLDTPLYIDIRGIMNLIAKNDRLWCATTHTIDEVFELIFEMNEEYGQYSELIRDLTFTNPGNMNDELNDFLVRYVADSLYTPTLAHYNDFGTHRTAREYFENGGRSYLIVPPEPNPGKDGYYYYILNMQKVRVPFITLLSEYDALVEAEQIIRDLMEAKTPHQFDEYYIIEGTAHLDLPFGLKAPSEVFPKVGAWLEK", "values": [{"measurement": "soluble on expression in E. coli", "value": "not soluble"}]}
{"sequence": "MGSDKIHHHHHHMNAPRFAAPARRTKKLPPLRVGIGGPVGSGKTTLLEMLCKGMRERYDLVAITNDIYTKEDQRLLTIAGALPEARIMGVETGGCPHTAIREDASINLEAVERMLARFPDADIVFIESGGDNLAATFSPELSDLTIYVIDVAGGEKIPRKGGPGITKSDLLVINKTDLAPLVGANLEVMASDTRKMRGERPYVMCNLKALDGVADVIAFIENKGLLTV", "values": [{"measurement": "soluble on expression in E. coli", "value": "not soluble"}]}
{"sequence": "MKNFVAGAQSGRKIQSGGCAIHCQDCSISQLCIPFTLNEQELDQLDNIIERKKPIQKSQVLFKAGDSLNSIYAIRSGTIKSYTISESGEEQITSFHLPGDLVGFDAITQMQHPSFAQALETAMVCEIPFDILDDLAGKMPKLRQQILRLMSSEIKSDQEMILLLSKMNAEERLAAFIHNLSKRYSARGFSAREFRLTMTRGDIGNYLGLTVETISRLLGRFQKLGVISVQGKYITINDLNGLIELTGTNKTKITLVK", "values": [{"measurement": "soluble on expression in E. coli", "value": "not soluble"}]}
{"sequence": "MGSDKIHHHHHHMLDLNHGSGCQYQKPDRDPGITVAVNAAIDAALVVRNRSQVARQYVSTSGIGRECLRQIQYDYLAVPKDEGRDFEPKTLRIFEAGHRGEDVVAAWLRAAGFDLRTERRDGRQFGFSALNGRFKGHIDGCLVGGPVAMAYPALWENKALGVSSWKDVVKRGVVLSKPVYAAQLALYQAYMDLPAPTLFTALNRDTWEIHCELVPFDAALAQTMSDRAVQVVRASDAQELLPRASAERTSVICRGGKTAGGWHGACSWQDRCWGRCR", "values": [{"measurement": "soluble on expression in E. coli", "value": "not soluble"}]}
{"sequence": "MRRVTEAAIPDNDGDEQPPVIPRYDPTSNFDAQRAQQQHPQSRPVYSTPAQMIRTTQPGGVKHNVILMKASDGTQKMVLKPGQFPPGTVISTGQRVVPYRQPTAVQQRQLYTATPGTRVVRIPNANGGAPRQQDHQVMRRVVQASGPRAMEYMDDQGTPPPGQQVRYVLQGGNSGTPNVNPPKVSSRGGPRGGLTMQMVQQQQQHNPVLDVMFSQVCRWDRQYGWSKTHVKRARQKNDSDKMHLRKFRMNQRELLITDHMERLKKEINKRRTRMENEAEQQCGLLTPWRKARARPHRAAKPKAEVKKEVINPADITLGGDTYDYVKEQKPTESIATNVSRRRRTSANLSKSEDDRDKPESQSTAPKSKERRTSEPPASHVAFHTPGSATPHDINLSIEHCTCQKIFDASKLYIQCELCARWYHGDCVGVAEQTILGLEHWSCEECIEEQERVKDQPALYCVCQKPYDDTKFYVGCDSCQGWFHPECVGTTRAEAEQAADYNCPACTREAEGYESEASDVSGSSRVSVQLTRADYTHVFELLELLLEHRMSTPFRNPVDLNEFPDYEKFIKKPMDLSTITKKVERTEYLYLSQFVNDVNQMFENAKTYNPKGNAVFKCAETMQEVFDKKLIDVREQMTARQQMLLLATAQQQDPMSSIRKRVQSESQRTVDSLDIDSDQLLPLDANLMRLYDF", "values": [{"measurement": "soluble on expression in E. coli", "value": "not soluble"}]}
{"sequence": "MTHQIVTTQYGKVKGTTENGVHKWKGIPYAKPPVGQWRFKAPEPPEVWEDVLDATAYGPICPQPSDLLSLSYTELPRQSEDCLYVNVFAPDTPSQNLPVMVWIHGGAFYLGAGSEPLYDGSKLAAQGEVIVVTLNYRLGPFGFLHLSSFDEAYSDNLGLLDQAAALKWVRENISAFGGDPDNVTVFGESAGGMSIAALLAMPAAKGLFQKAIMESGASRTMTKEQAASTAAAFLQVLGINESQLDRLHTVAAEDLLKAADQLRIAEKENIFQLFFQPALDPKTLPEEPEKSIAEGAASGIPLLIGTTRDEGYLFFTPDSDVHSQETLDAALEYLLGKPLAEKAADLYPRSLESQIHMMTDLLFWRPAVAYASAQSHYAPVWMYRFDWHPEKPPYNKAFHALELPFVFGNLDGLERMAKAEITDEVKQLSHTIQSAWITFAKTGNPSTEAVNWPAYHEETRETVILDSEITIENDPESEKRQKLFPSKGE", "values": [{"measurement": "soluble on expression in E. coli", "value": "soluble"}]}
{"sequence": "SELDAKLNKLGVDRIAISPYKQWTRGYMEPGNIGNGYVTGLKVDAGVRDKSDNNVLDGIVSYDRAETKNAYIGQINMTTAS", "values": [{"measurement": "soluble on expression in E. coli", "value": "soluble"}]}
{"sequence": "MYAMKEEDCLQTFHNLQDYQDQFHLHHHPQILPWSSTSLPSFDPLHFPSNPTRYSDPVHYFNRRASSSSSSFDYNDGFVSPPPSMDHPQNHLRILSEALGPIMRRGSSFGFDGEIMGKLSAQEVMDAKALAASKSHSEAERRRRERINTHLAKLRSILPNTTKTDKASLLAEVIQHMKELKRQTSQITDTYQVPTECDDLTVDSSYNDEEGNLVIRASFCCQDRTDLMHDVINALKSLRLRTLKAEIATVGGRVKNILFLSREYDDEEDHDSYRRNFDGDDVEDYDEERMMNNRVSSIEEALKAVIEKCVHNNDESNDNNNLEKSSSGGIKRQRTSKMVNRCYN", "values": [{"measurement": "soluble on expression in E. coli", "value": "soluble"}]}
{"sequence": "AMGTKSSAAVALKGLQFVTAKVGNDGWAAVEKRFNQLQVDGVLLRSRFGKCIGMDGSDEFAVQMFDSLARKRGIVKQVLTKDELKDFYEQLTDQGFDNRLRTFFDMVDKNADGRLTAEEVKEIIALSASANKLSKIKERADEYTALIMEELDPTNLGYIEMEDLEALLLQSPSEAAARS", "values": [{"measurement": "soluble on expression in E. coli", "value": "soluble"}]}
{"sequence": "MATLFIADLHLCAEEPAITAGFLRFLAGEARKADALYILGDLFEAWIGDDDPNPLHHQMAAAIKAVSDSGVPCYFIHGNRDFLLGKRFARESGMTLLPEEKVLELYGRRVLIMHGDTLCTDDAGYQAFRAKVHKPWLQTLFLALPLFVRKRIAARMRANSKEANSSKSLAIMDVNQNAVVSAMEKHQVQWLIHGHTHRPAVHELIANQQTAFRVVLGAWHTEGSMVKVTADDVELIHFPF", "values": [{"measurement": "soluble on expression in E. coli", "value": "soluble"}]}
{"sequence": "MSEKPQQEEQEKPQSRRNSFAVIEFTPEVLDRCLKQVEFYFSEFNFPYDRFLRTTAEKNDGWVPISTIATFNRMKKYRPVDKVIEALRSSEILEVSADGENVKRRVPLDLTAARNARIEQNQRTLAVMNFPHEDVEASQIPELQENLEAFFKKLGEINQVRLRRDHRNKKFNGTVLVEFKTIPECEAFLKSYSNDDESNEILSYEGKKLSVLTKKQFDLQREASKSKNFSGRSRSFNGHKKKNLPKFPKNKKKNGKEESKEDSSAIADDDEEHKE", "values": [{"measurement": "soluble on expression in E. coli", "value": "soluble"}]}
